Our source for the basolateral localisation of the receptor on MDCK transfectants (biotinylation of the cell surface, autoradiography) (% basolateral) values is patent US20040014055A1.

Test [1] has as its target chimera EGF-R/ERBB2 (HER 1/2) (Homo sapiens (Human)) (UniProt P00533).
Test [2] deals with HER1/2 VA (Homo sapiens (Human)) (UniProt P00533).

Erbin of the MDCK cells: the basolateral localisation of the receptor on MDCK transfectants (biotinylation of the cell surface, autoradiography) (% basolateral) was 83 in test [1] and 53 in test [2].
